According to patent US20250346673A1:

Legend:
[1] = target: human BDCA2 (human) (UniProt Q8WTT0); test: FACS on CHOK1-hBDCA2 cells; EC50 table under the plot, unit from the x axis (nM); fit of a flat control curve
[2] = target: cynomolgus BDCA2 (cynomolgus monkey); test: FACS on 293F-cynoBDCA2 cells; EC50 table under the plot, unit from the x axis (nM); fit of a flat control curve [continued) e.]
[3] = target: human BDCA2 (human) (UniProt Q8WTT0); test: FACS on CHOK1-hBDCA2 cells; EC50 table under the plot, unit from the x axis (nM); fit of a flat control curve [continued) e.]

Sequence of cynomolgus BDCA2 (cynomolgus monkey) (chain, as listed by the source): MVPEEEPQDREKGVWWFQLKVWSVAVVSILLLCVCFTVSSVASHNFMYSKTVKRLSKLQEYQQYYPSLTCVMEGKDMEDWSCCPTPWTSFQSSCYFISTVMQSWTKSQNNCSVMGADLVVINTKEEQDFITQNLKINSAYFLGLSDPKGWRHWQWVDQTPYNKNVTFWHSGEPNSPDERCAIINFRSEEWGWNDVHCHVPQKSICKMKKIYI
Sequence of human BDCA2 (human) (Q8WTT0 whole entry): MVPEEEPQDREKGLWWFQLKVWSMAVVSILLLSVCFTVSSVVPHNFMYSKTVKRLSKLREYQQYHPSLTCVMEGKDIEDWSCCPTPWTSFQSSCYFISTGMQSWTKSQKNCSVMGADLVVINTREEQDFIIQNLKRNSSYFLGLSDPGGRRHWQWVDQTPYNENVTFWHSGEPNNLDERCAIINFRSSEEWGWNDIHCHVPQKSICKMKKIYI

EC50 [1] [nM] | EC50 [2] [nM] | EC50 [3] [µM] | Substance
61.3 | 21.8 |  | hIgG1 (antibody)
 | 20.6 | 176 | mIgG1 (antibody)
